Results from patent US20250296971A1, “GASTRIC INHIBITORY PEPTIDE RECEPTOR LIGANDS” (priority 2021, published 2025).
Each block holds one molecule with its values, some of them ahead of it. *1 amine or outer side, *2 acyl side, *3 side chain or, on linkers, in order; H or OH if unused. Bridges are numbered along the chain shown (N, C = ends). Primed or numbered codes have the meaning given here. Where no end group is shown, it is not given here. [ ]: non-standard residue; d: D form. The star is where a group is joined. Ttds = 1,13-diamino-4,7,10-trioxatridecan-succinamic acid, NCCCOCCOCCOCCCNC(=O)CCC(=O)*; APAc″ = 4-amino-1-carboxymethylpiperidine, NC1CCN(CC(=O)*)CC1; dE(AGLU) = D-glutamic acid bearing 1-amino-1-deoxy-D-glucitol; MeO36PEG = monodisperse PEG 36 units conjugated with acetyl; Pro(trans-4-NH2) = O=C([C@@H]1C[C@@H](N[*:3])CN1[*:1])[*:2]; DOTA = O=C(O)CN1CCN(CC(=O)O)CCN(CC(=O)*)CCN(CC(=O)O)CC1; MeO2kDaPEGAc″ = methoxy polydisperse 2 kDa PEG acetyl; 2Lut = 2,6-lutidylidene bridge between two thiols; Trp(5-Cl) = N[C@@H](Cc1c[nH]c2ccc(Cl)cc12)C(=O)O; Trp(6-Cl) = N[C@@H](Cc1c[nH]c2cc(Cl)ccc12)C(=O)O; Phe(3,5-Cl2) = N[C@@H](Cc1cc(Cl)cc(Cl)c1)C(=O)O; Pyridine(2,6-diCH2) = c1cc(C[*:1])nc(C[*:2])c1; Trp(7-aza) = N[C@@H](Cc1c[nH]c2ncccc12)C(=O)O; 2Lut″ = 2,6-lutidylidene linking two thiols; APAc = 4-amino-1-carboxymethylpiperidine; mXylylene = c1cc(C[*:1])cc(C[*:2])c1; Glutaryl = O=C(CCCC(=O)[*:2])[*:1]; AGLU = 1-amino-1-deoxy-D-glucitol; Hyp = O=C(O)[C@@H]1C[C@@H](O)CN1; Cysteamide = C(CS[*:3])N[*:1]; Suc = O=C(CCC(=O)[*:2])[*:1]; hCys = N[C@@H](CCS)C(=O)O; Api = NC1(C(=O)O)CCNCC1; Thp = NC1(C(=O)O)CCOCC1; Aib = CC(C)(N)C(=O)O; mli″ = maleimide

How the values were obtained:
[1] = molecular target: human Gastric Inhibitory Peptide Receptor (human) (UniProt P48546); experiment: FACS competition with GIP-057 on CHO-K1-hGIPR cells; pIC50 category B: 7.1-8.0
human Gastric Inhibitory Peptide Receptor (human), sequence (P48546 22-466 limits assumed): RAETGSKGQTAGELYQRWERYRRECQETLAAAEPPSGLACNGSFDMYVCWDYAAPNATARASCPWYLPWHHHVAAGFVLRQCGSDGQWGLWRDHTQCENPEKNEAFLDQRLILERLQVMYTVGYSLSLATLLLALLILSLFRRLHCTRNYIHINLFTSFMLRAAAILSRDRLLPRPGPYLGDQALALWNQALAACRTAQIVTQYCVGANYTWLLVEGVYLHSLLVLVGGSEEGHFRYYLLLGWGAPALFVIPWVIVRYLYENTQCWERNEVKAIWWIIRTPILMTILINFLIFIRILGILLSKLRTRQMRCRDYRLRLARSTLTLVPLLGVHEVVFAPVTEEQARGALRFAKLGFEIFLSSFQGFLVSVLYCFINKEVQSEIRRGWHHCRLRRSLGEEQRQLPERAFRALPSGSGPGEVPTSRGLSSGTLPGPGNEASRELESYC

[2] = molecular target: biotinylated extracellular domain of the human GIP receptor (bioGIPR) (human) (UniProt P48546); experiment: SPR single cycle kinetics, bioGIPR captured on chip; category A: pKD >9.0
biotinylated extracellular domain of the human GIP receptor (bioGIPR) (human), sequence (P48546 24-138 limits assumed): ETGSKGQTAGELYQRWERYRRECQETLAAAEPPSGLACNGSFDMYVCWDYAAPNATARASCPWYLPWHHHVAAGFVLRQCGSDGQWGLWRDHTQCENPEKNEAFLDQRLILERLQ

[3] = molecular target: biotinylated extracellular domain of the human GIP receptor (bioGIPR) (human) (UniProt P48546); experiment: SPR single cycle kinetics, bioGIPR captured on chip; category A: t1/2 >15 min
[4] = molecular target: human Gastric Inhibitory Peptide Receptor (GIPR) (human) (UniProt P48546); experiment: FACS competition vs biotinylated GIP-057 on CHO-K1-hGIPR cells; category B: pIC50 7.1-8.0
human Gastric Inhibitory Peptide Receptor (GIPR) (human), sequence (P48546 22-466 limits assumed): as the sequence (P48546 22-466 limits assumed) above

pIC50 [1]: 7.1 to 8 pic50
pKD [2]: > 9 pkd
t1/2 [3]: > 15 min
Molecule: AGLU-Glutar-APAc-Asp-Trp-5Clw-Tap(AGLU-Glutar)-Glu-leu-[Cys(2Lut)-Apc(DOTA-glu(AGLU))-Leu-Ile-Cys]-APAc-glu(AGLU)-NH2 (peptide)

pIC50 [1]: 7.1 to 8 pic50
Molecule: DOTA-Ttds-Nmd-Trp-Trp-Pro-Glu-Leu-[Cys(3MeBn)-Aib-Leu-Ile-AET] (peptide)

pIC50 [1]: 7.1 to 8 pic50
B1: HO-Succinyl-Trp-5Clw-Hyp-Glu-leu-[Cys(2Lut)-Thp-Leu-Ile-Cys]-APAc-lys(MeO2kDaPEGAc)-Lys(DOTA)-NH2 (peptide)
peptide: Suc-W[Trp(5-Cl)][Hyp]E[dL]C[Thp]LIC
modifications: linker 6-10 via 2Lut; not fully specified (C-terminus); printed as HO-Succinyl-Trp-5Clw-Hyp-Glu-leu-[Cys(2Lut)-Thp-Leu-Ile-Cys]-APAc-lys(MeO2kDaPEGAc)-Lys(DOTA)-NH2

pIC50 [1]: 7.1 to 8 pic50
B2: AGLU-Glutar-APAc-Hse-Trp-5Clw-Hyp-Glu-leu-[Cys(2Lut)-Apc(DOTA-glu(AGLU))-Leu-Ile-Cys]-APAc-glu(AGLU)-NH2 (peptide)
peptide: XWXXEXCXLIC
modifications: not fully specified; N-term AGLU-Glutar-APAc; Hse; 5Clw; Hyp; leu (D-Leu); thioether cycle [Cys(2Lut)..Cys]; Apc(DOTA-glu(AGLU)); C-term APAc-glu(AGLU)-NH2

pIC50 [4]: 7.1 to 8 pic50
Molecule: Ac-DW[Trp(5-Cl)][Hyp]F[dL]C[Thp]LIC-NH2 (linker 7-11 via Pyridine(2,6-diCH2)) [Ac-Asp-Trp-5Clw-Hyp-Phe-leu-[Cys(2Lut)-Thp-Leu-Ile-Cys]-NH2]

pIC50 [1]: 7.1 to 8 pic50
Molecule: Suc-W[Trp(5-Cl)][Hyp]E[dL]C[Api](MeO2kDaPEGAc″)LIC-{APAc-Lys(DOTA)-NH2} (linker 6-10 via Pyridine(2,6-diCH2)) [HO-Succinyl-Trp-5Clw-Hyp-Glu-leu-[Cys(2Lut)-Apc(MeO2kDaPEGAc)-Leu-Ile-Cys]-APAc-Lys(DOTA)-NH2]

pIC50 [1]: 7.1 to 8 pic50
Molecule: {MeO36PEG-APAc″}-DW[Trp(5-Cl)][Hyp]E[dL]C[Api](DOTA)LIC-{dE(AGLU)-NH2} (linker 7-11 via Pyridine(2,6-diCH2)) [MeO36PEG-APAc-Asp-Trp-5Clw-Hyp-Glu-leu-[Cys(2Lut)-Apc(DOTA)-Leu-Ile-Cys]-glu(AGLU)-NH2]

pIC50 [4]: 7.1 to 8 pic50
Molecule: Ac-DW[Trp(5-Cl)][Hyp]E[dL]C[Thp]LFC-{(dK)(DOTA)-NH2} (linker 7-11 via Pyridine(2,6-diCH2)) [Ac-Asp-Trp-5Clw-Hyp-Glu-leu-[Cys(2Lut)-Thp-Leu-Phe-Cys]-lys(DOTA)-NH2]

pIC50 [1]: 7.1 to 8 pic50
Molecule: {AGLU-Glutaryl-APAc″}-DW[Trp(5-Cl)][Hyp]E[dL]C[Api](DOTA)LIC (linker 7-11 via Pyridine(2,6-diCH2); not fully specified (C-terminus)) [AGLU-Glutar-APAc-Asp-Trp-5Clw-Hyp-Glu-leu-[Cys(2Lut)-Apc(DOTA)-Leu-Ile-Cys]-lys(MeO36PEG)-NH2]

pIC50 [4]: 7.1 to 8 pic50
Molecule: Ac-DW[Phe(2,3-Cl2)][Hyp]E[dL]C[Thp]LIC-NH2 (linker 7-11 via 2Lut″) [Ac-Asp-Trp-Egp-Hyp-Glu-leu-[Cys(2Lut)-Thp-Leu-Ile-Cys]-NH2]

pIC50 [4]: 7.1 to 8 pic50
Molecule: Ac-DW[Trp(7-aza)][Hyp]E[dL]C[Thp]LIC-NH2 (linker 7-11 via 2Lut″) [Ac-Asp-Trp-7Nw-Hyp-Glu-leu-[Cys(2Lut)-Thp-Leu-Ile-Cys]-NH2]

pIC50 [4]: 7.1 to 8 pic50
B3: Ac-Asp-Egn-5Clw-Hyp-Glu-leu-[Cys(2Lut)-Thp-Leu-Ile-Cys]-NH2 (peptide)
peptide: Ac-D[Phe(3,5-Cl2)][Trp(5-Cl)][Hyp]E[dL]C[Thp]LIC-NH2
modifications: linker 7-11 via Pyridine(2,6-diCH2)
SMILES: CC[C@H](C)[C@@H]1NC(=O)[C@H](CC(C)C)NC(=O)C2(CCOCC2)NC(=O)[C@@H](NC(=O)[C@@H](CC(C)C)NC(=O)[C@H](CCC(=O)O)NC(=O)[C@@H]2C[C@@H](O)CN2C(=O)[C@H](Cc2c[nH]c3ccc(Cl)cc23)NC(=O)[C@H](Cc2cc(Cl)cc(Cl)c2)NC(=O)[C@H](CC(=O)O)NC(C)=O)CSCc2cccc(n2)CSC[C@@H](C(N)=O)NC1=O

pIC50 [1]: 7.1 to 8 pic50
B4: AGLU-Glutar-APAc-Hse-Trp-5Clw-Tap-Glu-leu-[Cys(2Lut)-Apc(DOTA)-Leu-Ile-Cys]-APAc-glu(AGLU)-NH2 (peptide)
peptide: XWXXEXCXLIC
modifications: N-term AGLU-Glutar-APAc; Hse; 5Clw; Tap; leu (D-Leu); thioether cycle [Cys(2Lut)..Cys]; Apc(DOTA); C-term APAc-glu(AGLU)-NH2

pIC50 [1]: 7.1 to 8 pic50
Molecule: {AGLU-Glutaryl}-DW[Trp(5-Cl)][Pro(trans-4-NH2)]E[dL][dC][Api](DOTA)LI[dC]-{APAc-dE(AGLU)-NH2} (linker 7-11 via Pyridine(2,6-diCH2)) [AGLU-Glutar-Asp-Trp-5Clw-Tap-Glu-leu-[cys(2Lut)-Apc(DOTA)-Leu-Ile-cys]-APAc-glu(AGLU)-NH2]

pIC50 [4]: 7.1 to 8 pic50
Molecule: Ac-DW[Trp(5-Cl)][Hyp]E[dL][hCys][Thp]LIC-NH2 (linker 7-11 via mli″) [Ac-Asp-Trp-5Clw-Hyp-Glu-leu-[Hcy(mli)-Thp-Leu-Ile-Cys]-NH2]

pIC50 [1]: 7.1 to 8 pic50
Molecule: {DOTA-Ttds}-D[Trp(6-Cl)]WPE[dL]C[Aib]LI[Cysteamide] (linker 7-11 via mXylylene) [DOTA-Ttds-Asp-6Clw-Trp-Pro-Glu-leu-[Cys(3MeBn)-Aib-Leu-Ile-AET]]

pIC50 [4]: 7.1 to 8 pic50
Molecule: {DOTA-Ttds}-DW[Phe(3,5-Cl2)][Hyp]E[dL]C[Thp]LIC-NH2 (linker 7-11 via Pyridine(2,6-diCH2)) [DOTA-Ttds-Asp-Trp-Egn-Hyp-Glu-leu-[Cys(2Lut)-Thp-Leu-Ile-Cys]-NH2]
